Assay results published in patent US7455998B2, “Methods for forming structurally defined organic molecules” (Dow Corning Corporation, priority 2004, dated 2008).
Values after ≈ are worked out from the molar mass of the structure shown. Values belong to the molecule of their own block, whether it stands above or below them.

What was measured:
[1] = biological target: T1, trypsin (Bos taurus, UniProt P00760); settings: neutral medium (pH 7.0) and toluene
T1 sequence (P00760 24-246): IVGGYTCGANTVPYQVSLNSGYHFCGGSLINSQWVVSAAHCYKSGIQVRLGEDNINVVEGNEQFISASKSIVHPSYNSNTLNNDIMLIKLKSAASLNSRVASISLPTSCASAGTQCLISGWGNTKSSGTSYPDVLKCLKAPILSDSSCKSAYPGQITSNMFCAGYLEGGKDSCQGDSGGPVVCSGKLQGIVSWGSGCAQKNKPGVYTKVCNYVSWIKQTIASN

[2] = biological target: T1, trypsin; assay: Trypsin-catalyzed polycondensation, seven days; type: biochemical, bovine; parameters: purchased Sigma-Aldrich #T4665; host or cells: bovine pancreas; settings: 25° C.
[3] = Estimated solubility in water
[4] = biological target: T1, trypsin; assay: Trypsin-catalyzed hydrolysis and condensation of alkoxysilanes; type: biochemical, bovine; parameters: purchased Sigma-Aldrich #T4665; host or cells: bovine pancreas
[5] = Enzyme-catalyzed condensation study after six days; type: biochemical
From the text: This study was directed to an enzyme screen with […] in order to evaluate the ability of various enzymes to catalyze the formation of a siloxane bond. Based on the similarities of the proteins isolated from the Tethya aurantia marine sponge (silicatein), Cylindrotheca fusiformis diatom (silaffin), and Equisetum telmateia plant (biopolymer extract), a series of lipases and serine-proteases were selected as homologous proteolytic enzymes. […] […]. In this study, control reactions were defined as non-enzymatic reactions. Specifically, experiments conducted in the absence of a protein were defined as negative control reactions. Proteinaceous molecules such as bovine serum albumin and porcine γ-globulins were used to study non-specific protein catalysis.
[…]. […] (˜200 mg/mL).

[6] = Protease-catalyzed condensation study after three hours; type: biochemical; settings: pH 7.0, three hours
Description: In comparison to control reactions, the ability of the proteases detailed in Table 3 to catalyse siloxane condensation was screened with […]. Comparatively, the original reactions conducted in the enzyme-catalysed condensation study were performed for six days versus three hours in this study.
Prior to reaction, the glass vials were silylated. […].
TLCK inhibits trypsin by alkylating the histidine residue in the catalytic triad.

[7] = Hydrolysis and condensation of trimethylethoxysilane by different sources of trypsin; effect of calcium; type: biochemical; settings: 20 mM CaCl2, pH 7.0, 25° C., three hours
From the text: Although various sources (e.g. mammalian, fish) of trypsin are similar (e.g. tertiary structure), their selectivity and activity may be different. […] . The reaction products were isolated and quantitatively analysed by GC (FIG. 24).
Calcium activation of trypsin induces changes in the tertiary structure of the enzyme. […] . […] The reaction products were isolated and quantitatively analysed by GC (FIG. 25).

[8] = Temperature and pH studies of the trypsin-catalyzed condensation of trimethylsilanol; type: biochemical
Description: The effect of temperature on trypsin as well as the enzyme-catalyzed condensation reaction was studied. Prior to reaction, buffered aqueous solutions (pH 7.0) of trypsin were stirred and equilibrated at set temperatures in a thermostated water bath (+/−0.1° C.) for 20 minutes. […] In the thermal denaturation experiments, trypsin was boiled for 20 minutes and three hours in 50 mM Tris-HCl buffered Milli-Q water (pH 7.0), independently, before performing the condensation reaction at 25° C.
. […] Based on the chromatographic data, the enzyme-catalyzed condensation reaction was dependent on the pH. The silanol condensation reaction was optimum at pH 7.0.

[9] = biological target: T1, trypsin; assay: Standard enzymatic activity assay of inhibited trypsin; type: biochemical, bovine; parameters: purchased Sigma-Aldrich #T4665; host or cells: bovine pancreas; settings: excess inhibitor (4:1 BBI, 2:1 PCI to protease mole ratio), pH 7.0, two hours
Description: Since α-chymotrypsin was inhibited by PCI, the presence of trypsin in α-chymotrypsin was confirmed. […] .
A proteinaceous inhibition study was conducted to investigate the role of the enzymatic active site in the hydrolysis and condensation of trimethylethoxysilane.

[10] = biological target: T1, trypsin; assay: Proteinaceous inhibition of the trimethylethoxysilane reaction; type: biochemical, bovine; parameters: purchased Sigma-Aldrich #T4665; host or cells: bovine pancreas; settings: 25° C., three hours, pH 7.0
Description: A proteinaceous inhibition study was conducted to investigate the role of the enzymatic active site in the hydrolysis and condensation of trimethylethoxysilane. […] .

[11] = biological target: T2, α-chymotrypsin (Bos taurus, UniProt P00766); assay: Standard enzymatic activity assay of inhibited α-chymotrypsin; type: biochemical, bovine; settings: excess inhibitor (4:1 BBI to protease mole ratio), pH 7.0, two hours
T2 construct: purchased Sigma-Aldrich #C-4129; host or cells: bovine pancreas
From the text: Since α-chymotrypsin was inhibited by PCI, the presence of trypsin in α-chymotrypsin was confirmed. In addition, condensation was not observed despite the partial inhibition of α-chymotrypsin with BBI.

Molecule: C[Si](C)(C)O[Si](C)(C)C [hexamethyldisiloxane]
trypsin-catalyzed hydrolysis of the siloxane bond (reverse reaction) [1]: not observed to catalyze the hydrolysis of a siloxane bond

Molecule: CCO[Si](C)(OCC)OCC [methyltriethoxysilane]
trypsin-catalyzed polycondensation (result in words) [2]: promoted the complete hydrolysis and, subsequent, polycondensation

Molecule: CCO[Si](C)(C)C [trimethylethoxysilane]
solubility [3]: 1000 µg/mL (≈ 8.46 mM)
trypsin-catalyzed hydrolysis and condensation (result in words) ([4]; 4:1 monomer to enzyme weight ratio, 25° C., three hours): preferentially catalyze the hydrolysis and condensation
relative turnover number of hydrolysis ([4]; 10° C.): 0.53 s⁻¹
condensed in the presence of trypsin ([4]; pH 7.0, 25° C., three hours): 84%
hydrolysed in the presence of trypsin ([4]; pH 7.0, 25° C., three hours): 100%

B1: trypsin: bovine pancreatic trypsin, commercial preparation (protein, UniProt P00760 24-246, looked up)
Serine protease 1: T1 sequence (P00760 24-246)
condensation of trimethylsilanol, Buffered pH 7 ([5]; 50 mM Tris-HCl pH 7.0, 25° C.): ✓ (determined to catalyse the condensation of greater than ten times more trimethylsilanol than the negative control reactions; as well as, greater than three or ten times more trimethylsilanol than the BSA reactions in organic and aqueous media, respectively)
condensation of trimethylsilanol, Dry Toluene ([5]; dry toluene, 25° C.): ✓ (determined to catalyse the condensation of greater than ten times more trimethylsilanol than the negative control reactions; as well as, greater than three or ten times more trimethylsilanol than the BSA reactions in organic and aqueous media, respectively)
condensation of trimethylsilanol, Water ([5]; water, 25° C.): ✓ (determined to catalyse the condensation of greater than ten times more trimethylsilanol than the negative control reactions; as well as, greater than three or ten times more trimethylsilanol than the BSA reactions in organic and aqueous media, respectively)
condensation of trimethylsilanol, Wet Toluene ([5]; wet toluene, 25° C.): ✓ (determined to catalyse the condensation of greater than ten times more trimethylsilanol than the negative control reactions; as well as, greater than three or ten times more trimethylsilanol than the BSA reactions in organic and aqueous media, respectively)
condensation of trimethylsilanol (result in words) [6]: preferentially catalyzed the condensation
increase of yield of the condensation of trimethylsilanol with calcium [7]: did not change
optimum pH of the silanol condensation reaction ([8]; 25° C., three hours, pH 4.0 to pH 10.0): 7.0
optimum temperature of the condensation reaction ([8]; pH 7.0, three hours): approximately 25 °C

inhibition of trypsin [9]: 91%
decrease of percent hydrolysis of trimethylethoxysilane with inhibited trypsin [10]: 6%
B2: PCI: trypsin inhibitor from Glycine max, 181 amino acids (protein, UniProt P01070 25-205, looked up)
Trypsin inhibitor A: DFVLDNEGNPLENGGTYYILSDITAFGGIRAAPTGNERCPLTVVQSRNELDKGIGTIISSPYRIRFIAEGHPLSLKFDSFAVIMLCVGIPTEWSVVEDLPEGPAVKIGENKDAMDGWFRLERVSDDEFNNYKLVFCPQQAEDDKCGDIGISIDHDDGTRRLVVSKNKPLVVQFQKLDKESL

inhibition of α-chymotrypsin [11]: 63%
inhibition of trypsin [9]: 98%
decrease of percent hydrolysis of trimethylethoxysilane with inhibited trypsin [10]: 24%
B3: BBI: trypsin-chymotrypsin inhibitor from soybean, 71 amino acids (protein, UniProt P01055 40-110, looked up)
Bowman-Birk type proteinase …: DDESSKPCCDQCACTKSNPPQCRCSDMRLNSCHSACKSCICALSYPAQCFCVDITDFCYEPCKPSEDDKEN
